Target: GS-nsp5 C145A (GS added nsp5 construct with the active site mutation C145A) (SARS-CoV-2)
Assay: NMR, 2D [15N,1H]-BEST-TROSY spectra compared

Substance: GS-nsp5 C145A (GS added nsp5 construct with the active site mutation C145A) (enzyme)
- stoichiometry N: 2

Reference: publication PMC8141814 (Frontiers in Molecular Biosciences, 2021)
